Assay results taken from patent US20120114590A1 (priority 2005, published 2012).
mPEG 20 kDa propionaldehyde = 20 kD methoxy-polyethylene glycol propionaldehyde, N-terminally conjugated

Columns and labels:
[1] = system: mouse B cells; experiment: 3H-thymidine incorporation by mouse B cells; format: cell-based; details: 72 hrs culture
Protocol: Mouse B cells were isolated from 2 Balb/C spleens (7 months old) by depleting CD43+ cells using MACS magnetic beads. Purified B cells were cultured in vitro with LPS, anti-IgM or anti-CD40 monoclonal antibodies. Mouse IL-28 or mouse IFNα was added to the cultures and ^3H-thymidine was added at 48 hrs. and ^3H-thymidine incorporation was measured after 72 hrs. culture.

[2] = system: 293 HEK cells overexpressing zcytor19; experiment: Inhibition of ligand-induced ISRE-luciferase signaling by soluble receptors; format: cell-based, human; details: 10 ng/ml ligand, 10 micrograms/ml soluble receptor, 4-hour; relative to PBS alone
[3] = system: AML-12 cells; experiment: ISG induction in the mouse liver cell line AML-12 (real-time PCR); format: cell-based; details: AML-12, 20 ng/ml, 48 hour time point; mRNA relative to HPRT gene expression
Protocol: AML-12 cells were plated in 6-well plates in complete DMEM media at a concentration of 2×10^6 cells/well. […] As a control, cells were either stimulated with mouse IFNα (positive control) or unstimulated (negative). […] RNA was isolated from cell pellets using RNAEasy-kit® (Qiagen, Valencia, Calif.). RNA was treated with DNase (Millipore, Billerica, Mass.) to clean RNA of any contaminating DNA. cDNA was generated using Perkin-Elmer RT mix. ISG gene induction was evaluated by real-time PCR using primers and probes specific for mouse OAS, Pkr and Mx1. To obtain quantitative data, HPRT real-time PCR was duplexed with ISG PCR. A standard curve was obtained using known amounts of RNA from IFN-stimulated mouse PBLs. All data are shown as expression relative to internal HPRT expression.

[4] = system: ISRE signaling in HepG2 cells; details: 100 ng/ml ligand, 4-hour incubation; RLU over medium alone
[5] = system: adenoviral vector AdGFP; experiment: Adenoviral vector (AdGFP) liver pathology model in C57Bl/6 mice; details: AdGFP-infected C57Bl/6 mice, 50 μg i.p., 7 doses
[6] = system: HCV replicon; experiment: HCV Replicon model in AVA5 cells, HCV RNA by dot blot hybridization assay; details: three consecutive days of treatment

Row | Molecule | 3H thymidine incorporation by mouse B cells stimulated with anti-CD40 MAb [1] | 3H-thymidine incorporation by mouse B cells stimulated with LPS or anti-IgM ([1]; IFNα at 10 ng/ml, mouse IL-28 any concentration tested including 1000 ng/ml) | Percent Inhibition of Ligand-induced ISRE Signaling by HuCRF2-4-Fc [2] | Percent Inhibition of Ligand-induced ISRE Signaling by Huzcytor19-Fc [2] | Percent Inhibition of Ligand-induced ISRE Signaling by Huzcytor19-Fc/huCRF2-4-Fc [2] | Percent Inhibition of Ligand-induced ISRE Signaling by Muzcytor19-Ig [2] | Mx1 [3] | OAS [3] | PkR [3] | Fold Induction of Cytokine-dependent ISRE Signaling in HepG2 Cells [4] | liver histology: liver and inflammation scores versus PBS-treated group [5] | average serum AST ([5]; n=8) | relative liver fluorescence ([5]; n=8) | serum ALT ([5]; n=8) | EC50 (HCV RNA, dot blot hybridization assay) [6]
1 | Zcyto24: mouse IL-28A (zcyto24), SEQ ID NO:8 (protein, listed as Mus musculus) MKPETAGGHMLLLLLPLLLAAVLTRTQADPVPRATRLPVEAKDCHIAQFKSLSPKELQAFKKAKDAIEKRLLEKDLRCSSHLFPRAWDLKQLQVQERPKALQAEVALTLKVWENMTDSALATILGQPLHTLSHIHSQLQTCTQLQATAEPRSPSRRLSRWLHRLQEAQSKETPGCLEASVTSNLFRLLTRDLKCVANGDQCV | increased | did not inhibit | 82% | 90% | 47% | 89% | 0.08 | 0.04 | 0.02 | 4.7 fold | lower liver and inflammation scores | 193 U/L | 34.5 arbitrary units | 216 U/L | 
2 | PEG-rIL-29-d2-7 (conjugate) {mPEG 20 kDa propionaldehyde}-MKPTTTGKGCHIGRFKSLSPQELASFKKARDALEESLKLKNWSCSSPVFPGNWDLRLLQVRERPVALEAELALTLKVLEAAAGPALEDVLDQPLHTLHHILSQLQACIQPQPTAGPRPRGRLHHWLHRLQEAPKKESAGCLEASVTFNLFRLLTRDLKYVADGNLSLRTSTHPEST |  |  |  |  |  |  |  |  |  |  |  |  |  |  | 0.516 ng/mL
